Results taken from paper PMC8497999 (iScience, 2021).
Read-outs that look alike come from different tables or passages of the source.

T1: His6-ECSIT (mature human mitochondrial ECSIT with N-terminal His tag) (human, UniProt Q9BQ95 49-431)
T1 sequence: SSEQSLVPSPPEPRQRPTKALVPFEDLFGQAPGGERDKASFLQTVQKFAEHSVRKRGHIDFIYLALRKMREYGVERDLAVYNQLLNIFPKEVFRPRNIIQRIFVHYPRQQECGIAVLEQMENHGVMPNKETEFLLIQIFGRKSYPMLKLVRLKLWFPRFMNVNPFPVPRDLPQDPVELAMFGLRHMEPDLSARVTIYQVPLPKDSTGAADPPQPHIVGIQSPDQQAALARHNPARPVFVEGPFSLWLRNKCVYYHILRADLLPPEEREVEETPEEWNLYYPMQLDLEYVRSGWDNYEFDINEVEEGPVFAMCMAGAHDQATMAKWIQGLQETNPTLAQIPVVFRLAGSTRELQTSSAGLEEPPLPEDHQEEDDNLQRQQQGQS

B1: His6-SMT3-NDUFAF1 (SUMO fusion of mature human NDUFAF1) (natural protein)
chain: YPFLGIRFAEYSSSLQKPVASPGKASSQRKTEGDLQGDHQKEVALDITSSEEKPDVSFDKAIRDEAIYHFRLLKDEIVDHWRGPEGHPLHEVLLEQAKVVWQFRGKEDLDKWTVTSDKTIGGRSEVFLKMGKNNQSALLYGTLSSEAPQDGESTRSGYCAMISRIPRGAFERKMSYDWSQFNTLYLRVRGDGRPWMVNIKEDTDFFQRTNQMYSYFMFTRGGPYWQEVKIPFSKFFFSNRGRIRDVQHELPLDKISSIGFTLADKVDGPFFLEIDFIGVFTDPAHTEEFAYENSPELNPRLFK
B2: ACAD9 (non-tagged wild type) (enzyme)
chain: AFAKELFLGKIKKKEVFPFPEVSQDELNEINQFLGPVEKFFTEEVDSRKIDQEGKIPDETLEKLKSLGLFGLQVPEEYGGLGFSNTMYSRLGEIISMDGSITVTLAAHQAIGLKGIILAGTEEQKAKYLPKLASGEHIAAFCLTEPASGSDAASIRSRATLSEDKKHYILNGSKVWITNGGLANIFTVFAKTEVVDSDGSVKDKITAFIVERDFGGVTNGKPEDKLGIRGSNTCEVHFENTKIPVENILGEVGDGFKVAMNILNSGRFSMGSVVAGLLKRLIEMTAEYACTRKQFNKRLSEFGLIQEKFALMAQKAYVMESMTYLTAGMLDQPGFPDCSIEAAMVKVFSSEAAWQCVSEALQILGGLGYTRDYPYERILRDTRILLIFEGTNEILRMYIALTGLQHAGRILTTRIHELKQAKVSTVMDTVGRRLRDSLGRTVDLGLTGNHGVVHPSLADSANKFEENTYCFGRTVETLLLRFGKTIMEEQLVLKRVANILINLYGMTAVLSRASRSIRIGLRNHDHEVLLANTFCVEAYLQNLFSLSQLDKYAPENLDEQIKKVSQQILEKRAYICAHPLDRTC

Tests used:
[1] = target: T1, His6-ECSIT (mature human mitochondrial …); assay: SEC
[2] = target: T1, His6-ECSIT (mature human mitochondrial …); assay: SEC; remark: listed apart in the source
SEC-SAXS = target: the molecule itself; assay: SEC-SAXS

Row | Binder | stoichiometry N [1] | stoichiometry N [2] | stoichiometry N (SEC-SAXS)
1 | B1 | 1 NDUFAF1 monomer per ECSIT monomer (2:2) | 1 monomer:monomer | 
2 | B2 |  |  | 2
